This is an account of results in patent US20070154994A1 (NATIONAL RESEARCH COUNCIL OF CANADA, published 2007).

To fix the notation:
B1: MP-TβRIIIED-K5 fusion protein (receptor)
chain: GPEQKLISEEDLRQLRNPSGFQGQLDGNATFNMELYNTDLFLVPSPGVFSVAENEHVYVEVSVTKADQDLGFAIQTCFLSPYSNPDRMSDYTIIENICPKDDSVKFYSSKRVHFPIPHAEVDKKRFSFLFKSVFNTSLLFLHCELTLCSRKKGSLKLPRCVTPDDACTSLDATMIWTMMQNKKTFTKPLAVVLQVDYKENVPSTKDSSPIPPPPPQIFHGGRGGGGSGGGKVSALKEKVSALKEKVSALKEKVSALKEKVSALKEGGHHHHHH
notes: Secreted from HEK 293SF cells; also called Cterm-TβRIIIED-K5coil; K5 tagged TβRIIIED
B2: TβRIIED-E5 dimerized by K5ox (two TβRIIED-E5 to one K5ox) (receptor)
chain: TIPPEQKLISEEDLLHVQKSVNNDMIVTDNNGAVKFPQLCKFCDVRFSTCDNQKSCMSNCSITSICEKPQEVCVAVWRKNDENITLETVCHDPKLPYHDFILEDAASPKCIMKEKKKPGETFFMCSCSSDECNDNIIFSEEYNTSNPDGGRGGGGSGGGEVSALEKEVSALEKEVSALEKEVSALEKEVSALEKGGHHHHHH
peptide: CGGKVSALKEKVSALKEKVSALKEKVSALKEKVSALKE
modifications: N-terminal Cys oxidized, joining the two chains as a K5 covalent dimer
B3: K5ox (peptide)
peptide: B2 peptide
modifications: also: covalent homodimer via oxidized N-terminal Cys
notes: Synthetic peptide oxidized in ammonium bicarbonate at pH 8.0; also called oxidized CGGK5 coil; K5 covalent dimer
B4: TβRIIED-E5 fusion protein (receptor)
chain: B2 chain
notes: Secreted from HEK 293SF cells; also called TβRII ED-E5 coil; E5 coiled-tagged TβRIIED
B5: TβRIIED-K5/TβRIIED-E5 coiled-coil induced dimer (receptor)
chain 1: TIPPEQKLISEEDLLHVQKSVNNDMIVTDNNGAVKFPQLCKFCDVRFSTCDNQKSCMSNCSITSICEKPQEVCVAVWRKNDENITLETVCHDPKLPYHDFILEDAASPKCIMKEKKKPGETFFMCSCSSDECNDNIIFSEEYNTSNPDGGRGGGGSGGGKVSALKEKVSALKEKVSALKEKVSALKEKVSALKEGGHHHHHH
chain 2: B2 chain
notes: Non-covalent dimer made by preincubating equimolar TβRIIED-K5 and TβRIIED-E5; also called TβRIIED-E5/TβRIIED-K5 dimer

Where no end group is shown, it is not given here.

The target of assay [1] is T1, Recombinant human TGF-β1 (human, UniProt P01137 279-390).
T1 construct: It was amine coupled to the CM5 chip in SPR and used at 10 pM in the luciferase assay; also called transforming growth factor-β1
Kind of assay: SPR, TGF-β1 coupled, simple model, Kdapp. The procedure: (§1) In FIG. 6A, different concentrations of MP-TβRIIIED-K5 monomeric fusion protein ranging from 62.5 nM to 500 nM were injected over 75 RUs of coupled TGF-β1 and over a control surface. The points are the resonance units obtained after data preparation as described in Example 2, and the solid lines represent the fit when integrating all the curves simultaneously using a rearrangement model. FIGS. 6B-6C show residuals from the fit of the interaction data using a rearrangement model (FIG. 6B) and a simple one-to-one model (FIG. 6C).
(§2) Surface plasmon resonance studies were performed using a BIACORE™ biosensor (see for example U.S. Pat. No. 6,165,335 and related patents) using a running buffer composed of HBS; 20 mM Hepes (pH 7.4),150 mM NaCl, 3.4 mM EDTA, and 0.05% Tween20 for diluting all the test analytes.

Assay [2] has as its target T1, Recombinant human TGF-β1. Kind of assay: SPR, TGF-β1 coupled, simple model, kass#1. The procedure:
as §1
(§3) Kinetic experiments were carried out at 25° C. with a flow rate of 100 μL/min. Different concentrations of MP-TβRIIIED-K5 (0 to 500 nM), or MP-TβRIIIED-mixed with equimolar concentrations of […] (0 to 150 nM), were randomly injected in duplicate over a TGF-β1 surface as well as over a control surface (150 μL injections), following which the analyte solution was replaced by buffer for at least 210 seconds. Regeneration of the sensor chip for subsequent injections was accomplished by two pulses of HCl (20 mM, 120 seconds), followed by an EXTRACLEAN procedure performed according to the BIACORE manual.

In assay [3] the target is T1, Recombinant human TGF-β1. Kind of assay: SPR, TGF-β1 coupled, simple model, Kdiss#1. The procedure: as §1, §2
The target in assay [4] is T1, Recombinant human TGF-β1. Kind of assay: SPR, TGF-β1 coupled, rearrangement model, Kdapp. The procedure: as §1, §3
The target in assay [5] is T1, Recombinant human TGF-β1. Kind of assay: SPR, TGF-β1 coupled, rearrangement model, kass#1. The procedure:
as §1, §2

Assay [6] deals with T1, Recombinant human TGF-β1. Kind of assay: SPR, TGF-β1 coupled, rearrangement model, Kdiss#1. The procedure: as §1, §3
Assay [7] deals with T1, Recombinant human TGF-β1. Kind of assay: SPR, TGF-β1 coupled, simple model, Kd 1; simple model, Kd 1. The procedure: as §1, §2
Assay [8] concerns the target T1, Recombinant human TGF-β1. Kind of assay: SPR, TGF-β1 coupled, rearrangement model, rearrangement step. On the procedure:
as §1, §2

Assay [9] has as its target T1, Recombinant human TGF-β1. Kind of assay: SPR, TGF-β1 coupled, rearrangement model, Kd 1 (initial binding step). The procedure:
as §1, §2

Assay [10] deals with T2, Recombinant human TβRIIED, untagged (human, UniProt P37173 23-166).
T2 construct: extracellular domain; Gift from Dr. Hinck; also called untagged hTβRII ED; untagged TβRIIED
Kind of assay: SPR (BIACORE), untagged hTβRII ED (about 120 RU left) captured on the coupled anti hTGF-βRII antibody, MP-TβRIIIED-K5 injected. On the procedure:
This study is also described in Example 2.
A solution of 0.1 M ethanolamine-HCl (pH 8.5, 35 μL) was then used to block the remaining activated carboxyl groups.
Three studies were then performed at a flow rate of 5 μL/min: [0183] […] [0184] […] [0185]

The target in assay [11] is T1, Recombinant human TGF-β1. Kind of assay: cell-based or functional assay.
In assay [12] the target is B4. Kind of assay: inferred from SPR of TβRIIED-E5 (300 nM) preincubated with K5ox over coupled TGF-β1. An excerpt: (§4) In another embodiment of the invention, an alternative approach to achieving coiled-coil induced dimerization of TβRIIED is provided. In this embodiment, a dimeric coil is used to act as an adaptor to bridge two proteins.
(§5) Regeneration of the sensor chip was done as described above.

In assay [13] the target is T1, Recombinant human TGF-β1. Kind of assay: SPR (BIACORE), TGF-β1 coupled, 300 nM TβRIIED-E5 alone; the pair is assigned by the fast wash-off that paragraph 133 gives for sensorgrams 1 and 4.
Description: as §4, §5

Assay [14] deals with T1, Recombinant human TGF-β1. Kind of assay: SPR, TGF-β1 coupled, avidity model, Kd 1. The procedure: (§6) Regeneration of the sensor chip for subsequent injections was accomplished by two pulses of HCl (20 mM, 120 seconds), followed by an EXTRACLEAN procedure performed according to the BIACORE manual.
For assay [15], the target named is T1, Recombinant human TGF-β1. Kind of assay: SPR, TGF-β1 coupled, avidity model, kass#1. On the procedure: (§7) Since TGF-β1 is a covalent dimer, and since TβRIIED was artificially dimerized through coiled-coil interactions, two scenarios of binding were evaluated. […] This corresponds to an overall one to one (dimer-to-dimer) stoichiometry model with a rearrangement step after the initial binding (rearrangement model).

Assay [16] has as its target T1, Recombinant human TGF-β1. Kind of assay: SPR, TGF-β1 coupled, avidity model, Kdiss#1. The procedure: as §7
Assay [17] has as its target T1, Recombinant human TGF-β1. Kind of assay: SPR, TGF-β1 coupled, rearrangement model (best fit), Kdapp.
Assay [18] has as its target T1, Recombinant human TGF-β1. Kind of assay: SPR, TGF-β1 coupled, rearrangement model (best fit), kass#1. On the procedure: as §7
Assay [19] deals with T1, Recombinant human TGF-β1. Kind of assay: SPR, TGF-β1 coupled, rearrangement model (best fit), Kdiss#1.
In assay [20] the target is T1, Recombinant human TGF-β1. Kind of assay: SPR, TGF-β1 coupled, rearrangement model, rearrangement step. The procedure: as §7
This is another data set of the same source.

Assay [21] has as its target T1, Recombinant human TGF-β1. Kind of assay: SPR, TGF-β1 coupled, simple one-to-one model (poor fit), Kd 1. On the procedure: as §6
Assay [22] has as its target T1, Recombinant human TGF-β1. Kind of assay: SPR, TGF-β1 coupled, simple one-to-one model (poor fit), Kdapp. On the procedure:
as §6

For assay [23], the target named is T1, Recombinant human TGF-β1. Kind of assay: SPR, TGF-β1 coupled, simple one-to-one model (poor fit), kass#1.
Assay [24] concerns the target T1, Recombinant human TGF-β1. Kind of assay: SPR, TGF-β1 coupled, simple one-to-one model (poor fit), Kdiss#1.
In assay [25] the target is T1, Recombinant human TGF-β1. Kind of assay: SPR, TGF-β1 coupled, rearrangement model, Kd 1 (initial binding step). The procedure: as §7
This is another data set of the same source.

The target in assay [26] is T1, Recombinant human TGF-β1. Kind of assay: SPR, TGF-β1 coupled, avidity model, second step; unit from footnote **. On the procedure:
as §6

T1 sequence (P01137 279-390 limits assumed): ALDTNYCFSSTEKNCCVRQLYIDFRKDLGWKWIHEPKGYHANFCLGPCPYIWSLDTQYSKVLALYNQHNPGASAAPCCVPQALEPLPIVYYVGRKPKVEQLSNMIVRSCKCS
T2 sequence (P37173 23-166): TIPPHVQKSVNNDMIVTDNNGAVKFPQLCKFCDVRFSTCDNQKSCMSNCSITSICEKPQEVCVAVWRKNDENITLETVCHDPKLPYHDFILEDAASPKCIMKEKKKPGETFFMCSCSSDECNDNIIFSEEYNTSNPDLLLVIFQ

Turning to B1, the Kd was 48 nM with Recombinant human TGF-β1 [1], 86 nM in the assay with Recombinant human TGF-β1 [4], 49 nM with Recombinant human TGF-β1 [7] and 670 nM with Recombinant human TGF-β1 [9]. For the same molecule, the on-rate constant (kon) with Recombinant human TGF-β1 [2] was found to be 50000 M⁻¹ s⁻¹; with Recombinant human TGF-β1 [5] it was 64000 M⁻¹ s⁻¹. Further, the koff with Recombinant human TGF-β1 [3] came out at 0.0025 s⁻¹; with Recombinant human TGF-β1 [6], 0.044 s⁻¹. Besides, the “kd 2 (no unit)” value in the assay with Recombinant human TGF-β1 [8] is 0.15 no unit. In addition, in [10], the binding result is given as “no binding (tested: 200 nM)”.

Regarding B2, in the assay with Recombinant human TGF-β1 [11], the “IC50 for inhibition of signaling (luciferase, MLEC cells)” value is approximately 30 nM and the “IC50 of TβRIIED-E5 in the presence of 150 nM K5ox (luciferase, MLEC cells)” value was determined as 53 nM.

On to B3, for which the binding result in [12] is given as “binds”.

For the molecule B4, the binding result with Recombinant human TGF-β1 [13] is given as “binds”.

On to B5, for which the Kd came out at 330 nM with Recombinant human TGF-β1 [14]; 1.5 nM with Recombinant human TGF-β1 [17]; 0.33 nM in the assay with Recombinant human TGF-β1 [21]; 0.33 nM in the assay with Recombinant human TGF-β1 [22]; 92 nM in the assay with Recombinant human TGF-β1 [25]. Further, the kon in the assay with Recombinant human TGF-β1 [15] came to 213000 M⁻¹ s⁻¹; with Recombinant human TGF-β1 [18] it was 1.19e+06 M⁻¹ s⁻¹; in the assay with Recombinant human TGF-β1 [23], 640000 M⁻¹ s⁻¹. For the same molecule, the koff is 0.071 s⁻¹ with Recombinant human TGF-β1 [16], 0.11 s⁻¹ with Recombinant human TGF-β1 [19] and 0.00021 s⁻¹ with Recombinant human TGF-β1 [24]. Moreover, the “Kd 2 (no unit)” value with Recombinant human TGF-β1 [20] was 0.0166 no unit. Moreover, the “Kd 2” value in the assay with Recombinant human TGF-β1 [26] came out at 370 nM.
